Test [1] addresses T1, recombinant human IL-10Ra fusion protein (R&D Systems) (human, UniProt Q13651 22-235).
T1 sequence (looked up): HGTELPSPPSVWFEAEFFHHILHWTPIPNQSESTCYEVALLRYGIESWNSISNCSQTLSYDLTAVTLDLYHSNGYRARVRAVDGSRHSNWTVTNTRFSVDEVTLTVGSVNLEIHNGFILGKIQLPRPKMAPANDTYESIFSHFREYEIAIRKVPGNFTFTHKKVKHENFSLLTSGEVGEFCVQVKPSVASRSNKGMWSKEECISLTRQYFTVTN
Kind of test: ELISA, coated human IL-10Ra fusion protein. The protocol:
Materials and methods: Recombinant human IL-10Ra fusion protein (R&D Systems) were immobilized on 96 well microtiter plate at a concentration of 1 μg/ml in Coating Solution (SeraCare) overnight at 4° C. The wells were washed with wash solution (0.05% Tween20 in imidazole-buffered saline) and blocked with 1% BSA. Serial dilutions of Ab/IL-10 fusion proteins were added to wells. After incubation at 37° C. for lhr, the wells were washed with wash solution. Peroxidase-conjugated goat anti-human kappa light chain antibody (Bethyl) was applied to each well at 37° C. for 1 hr incubation. After washing, the wells were developed with TMB substrate for 5-10 min at RT and then stopped with 1 N HCl. Thereafter absorbance was measured at 450 nm and 650 nm. The EC50 value was calculated through GraphPad Prism7.
In general terms: An ELISA detects its analyte on a solid surface through an enzyme-linked reagent.

Test [2] concerns the target T2, recombinant human CSF1R-Fc fusion protein (human, UniProt P07333 20-512).
T2 construct: probably the same protein; also called CSF1R-Fc (dimer); not shown: Fc part
Kind of test: ELISA, coated human CSF1R-Fc. The procedure: Materials and methods: Recombinant human CSF1R-Fc, or mouse CSF1R-Fc (Sino Biological) were immobilized on 96 well microtiter plate at a concentration of 1 μg/mL in Coating Solution (SeraCare) overnight at 4° C. The wells were washed with wash solution (0.05% Tween20 in imidazole-buffered saline) and blocked with 1% BSA. Serial dilutions of the anti-CSF1R/IL-10 fusion proteins were added to wells. After incubation at 3TC for 1 h, the wells were washed with wash solution. To detect chimeric Ab/IL10 fusions, peroxidase-conjugated goat anti-human kappa light chain antibody (Bethyl) was applied to each well at 3TC for 1 h incubation. To detect AB98 or AB98/1110 fusions, peroxidase-conjugated Goat anti-mouse IgG Fab antibody (Jackson immunoresearch) was applied to each well at 3TC for 1 h incubation. After washing, the wells were developed with TMB substrate for 5-10 min at RT and then stopped with 1 N HCl. Thereafter absorbance was measured at 450 nm and 650 nm.

The target in test [3] is human CSF1R expressed on cells (293F/huCSF1R stable cells; AML5 cells; human monocytes and macrophages) (human, UniProt P07333 20-972). The experiment in a line: cell-based or functional assay.
Test [4] has as its target T2, recombinant human CSF1R-Fc fusion …. Kind of test: competition ELISA, coated human CSF1R-Fc, competitor biotinylated human CSF1-His 2.5 ug/mL. The procedure: Materials and methods: Recombinant human CSF1R-Fc or mouse CSF1R-Fc (Sino Biological) fusion protein was immobilized on 96 well microtiter plate at a concentration of 1 μg/mL in Coating Solution (SeraCare) overnight at 4° C. The wells were washed with wash solution and blocked with 1% BSA at RT. Serial dilutions of Ab/IL-10 fusion proteins were added to wells. Then 2.5 ug/mL biotinylated human CSF1-His (Biolegend) or mouse CSF1-His (Sino Biological) was added and incubated for 1 h at 37° C. After washing, Streptavidin-HRP (Jackson ImmunoResearch) was applied to wells at RT for 1 h incubation. After washing, the wells were developed with TMB substrate for 5-10 min at RT and the stopped with 1 N HCl. Thereafter absorbance was measured at 450 nm and 650 nm. The IC₅₀ values were calculated through GraphPad Prism7.

Test [5] addresses T3, cynomolgus CSF1R expressed on 293F cells (cynomolgus monkey, UniProt P07333 20-972 (human entry)).
T3 construct: also called cynoCSF1R
T3 chain: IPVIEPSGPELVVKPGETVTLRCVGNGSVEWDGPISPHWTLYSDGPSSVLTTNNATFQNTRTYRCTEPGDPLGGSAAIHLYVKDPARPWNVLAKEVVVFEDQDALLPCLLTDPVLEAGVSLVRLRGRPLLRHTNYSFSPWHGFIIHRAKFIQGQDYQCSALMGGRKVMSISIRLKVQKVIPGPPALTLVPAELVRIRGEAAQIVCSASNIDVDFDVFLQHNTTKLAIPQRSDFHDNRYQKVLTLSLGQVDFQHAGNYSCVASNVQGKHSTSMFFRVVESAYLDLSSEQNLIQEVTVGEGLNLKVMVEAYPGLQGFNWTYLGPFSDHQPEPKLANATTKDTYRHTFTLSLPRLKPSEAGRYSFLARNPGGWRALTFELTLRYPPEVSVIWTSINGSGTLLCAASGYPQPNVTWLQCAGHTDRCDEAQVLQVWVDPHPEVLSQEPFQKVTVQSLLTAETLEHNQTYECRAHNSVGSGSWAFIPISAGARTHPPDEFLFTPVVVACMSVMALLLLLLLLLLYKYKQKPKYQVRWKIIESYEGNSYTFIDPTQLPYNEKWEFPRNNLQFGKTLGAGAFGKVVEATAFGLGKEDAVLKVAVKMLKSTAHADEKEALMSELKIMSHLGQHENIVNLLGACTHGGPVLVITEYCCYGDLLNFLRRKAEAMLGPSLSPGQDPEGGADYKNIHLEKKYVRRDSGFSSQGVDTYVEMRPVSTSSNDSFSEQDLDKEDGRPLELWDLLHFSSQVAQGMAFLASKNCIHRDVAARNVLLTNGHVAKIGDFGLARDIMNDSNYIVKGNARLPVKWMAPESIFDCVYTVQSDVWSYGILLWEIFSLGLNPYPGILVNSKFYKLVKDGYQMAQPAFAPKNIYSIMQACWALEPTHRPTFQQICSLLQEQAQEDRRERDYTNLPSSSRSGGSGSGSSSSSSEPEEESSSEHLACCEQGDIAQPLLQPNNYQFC
Kind of test: flow cytometry titration on 293F cells overexpressing cynomolgus CSF1R, anti-human IgG-Alexa Fluor 647. The source says:
Materials and methods: The gene segments encoding full-length human CSF1R or cynomolgus CSF1R were obtained using Thermo gene synthesis service and cloned in a mammalian expression vector pCDNA3.4. […] After washing with FACS buffer (2%FBS in PBS), the cells were stained with anti-human IgG-Alexa Fluor 647 and analyzed by Attune N×T Flow Cytometer (Thermo Scientific).
(In flow cytometry, cells or beads pass a laser one at a time.)

Broadly, the EC50 is the concentration that produces a half-maximal response. The term IC50 denotes the concentration at which inhibition is half-maximal.

T2 sequence (P07333 20-512 limits assumed): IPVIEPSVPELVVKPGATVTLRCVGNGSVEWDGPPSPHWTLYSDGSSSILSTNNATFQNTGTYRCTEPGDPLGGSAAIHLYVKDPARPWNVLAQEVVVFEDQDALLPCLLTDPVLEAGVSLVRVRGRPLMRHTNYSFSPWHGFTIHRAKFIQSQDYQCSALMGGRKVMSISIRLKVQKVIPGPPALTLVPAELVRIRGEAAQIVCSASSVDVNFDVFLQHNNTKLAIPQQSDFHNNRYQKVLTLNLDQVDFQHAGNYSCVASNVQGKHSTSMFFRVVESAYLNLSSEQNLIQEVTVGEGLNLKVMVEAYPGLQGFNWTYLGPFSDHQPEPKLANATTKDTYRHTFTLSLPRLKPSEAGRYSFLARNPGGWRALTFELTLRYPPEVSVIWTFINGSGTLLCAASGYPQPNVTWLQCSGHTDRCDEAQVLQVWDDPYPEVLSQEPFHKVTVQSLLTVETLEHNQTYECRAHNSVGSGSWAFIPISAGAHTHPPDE

B1: chimeric anti-CSF1R/IL10 fusion protein 6D4/IL10 (antibody, human IgG1, kappa)
heavy: not shown
light: DIQMNQSPSSLSASLGDTITITCHASQNINVWLSWYQQKPGNIPKLLIYKASNLHTGVPSRFSGSGSGTGFTLTISSLQPEDIATYYCQQGQSYPYTFGGGTKLEIKRTVAAPSVFIFPPSDEQLKSGTASVVCLLNNFYPREAKVQWKVDNALQSGNSQESVTEQDSKDSTYSLSSTLTLSKADYEKHKVYACEVTHQGLSSPVTKSFNRGEC
notes: Antibody-cytokine fusion: human IL10 fused by a linker to the C-terminus of the heavy chain
Regarding B1, the EC50 was 2.76 nM in test [1] and 0.479 nM in test [2]. Moreover, the “IC50 (M), inhibition of AML5 cell proliferation (CSF1-dependent)” value in test [3] stood at 4.92e-09 M. Besides, in test [4], the IC50 was 1.4 nM. The binding result in test [5] is recorded as “binds”.

B2: chimeric anti-CSF1R/IL10 fusion protein 6D4/(IL10)2 (antibody, human IgG1, kappa)
heavy: not shown
light: DIQMNQSPSSLSASLGDTITITCHASQNINVWLSWYQQKPGNIPKLLIYKASNLHTGVPSRFSGSGSGTGFTLTISSLQPEDIATYYCQQGQSYPYTFGGGTKLEIKRTVAAPSVFIFPPSDEQLKSGTASVVCLLNNFYPREAKVQWKVDNALQSGNSQESVTEQDSKDSTYSLSSTLTLSKADYEKHKVYACEVTHQGLSSPVTKSFNRGEC
notes: Antibody-cytokine fusion: two human IL10 in tandem fused by linkers to the C-terminus of the heavy chain
Consider B2, for which the figures for the EC50 in test [1] and in test [2] were 6.08 nM and 0.393 nM, respectively.

These data come from patent publication US20210403583A1 (ELIXIRON IMMUNOTHERAPEUTICS HONG KONG, published 2021).
